{"source": "patent US10870872B2", "about": "“Enzymatic nucleic acid synthesis” (President and Fellows of Harvard College, priority 2016, dated 2020)", "key": {"TdT [1]": {"target": "T1, TdT (Homo sapiens, UniProt P04053)", "test": "pH regulation of TdT enzyme activity (extension reactions, TBE-Urea gel)", "format": "biochemical", "description": "The objective of these experiments is to determine the range of pH in which TdT is active.\n1. A buffer of 50 mM Tris (base) and 50 mM Boric acid was prepared and its pH (initially at ˜8.5) was adjusted to 6.05, 6.9, 7.93, 8.96, 10.02, and 11.07 using acetic acid and sodium hydroxide. These buffers serve as 2× buffers in the experiments.\n2. Extension reactions were assembled as follows:\n3. Each reaction was incubated for 15 minutes and then loaded on a TBE-Urea gel with an unextended initiator for comparison.\nIn the following experiment, TdT was incubated at a pH for 15 minutes without the nucleotide or the initiator, it was then combined with the nucleotide and the initiator in such a way that the final pH of the mixture during polymerization would be different from that of the initial 15 min incubation.\n1. A buffer of 50 mM Tris (base) and 50 mM Boric acid was prepared and its pH (initially at ˜8.5) was adjusted to 6.05, 6.9, 7.93, 8.96, 10.02, and 11.07 using acetic acid and sodium hydroxide. These buffers serve as 2× buffers in the experiment.\n2. Extension reactions were assembled in two parts:\nEight different extension reactions were assembled with following pH used for the buffer in part 1 and part 2:\n3. Both parts of each reaction were incubated for 15 minutes, they were then mixed to form the 20 μl total, then loaded on a TBE-Urea gel: […]"}, "TdT [2]": {"target": "T1, TdT", "details": "Ashley et al., Virology 77, 367-375 (1977); cited from earlier work"}}, "data": [{"molecule": "TdT: template-independent DNA polymerase which extends single-stranded oligonucleotides (protein, UniProt P04053 1-509, looked up) DNA nucleotidylexotransferase: MDPPRASHLSPRKKRPRQTGALMASSPQDIKFQDLVVFILEKKMGTTRRAFLMELARRKGFRVENELSDSVTHIVAENNSGSDVLEWLQAQKVQVSSQPELLDVSWLIECIRAGKPVEMTGKHQLVVRRDYSDSTNPGPPKTPPIAVQKISQYACQRRTTLNNCNQIFTDAFDILAENCEFRENEDSCVTFMRAASVLKSLPFTIISMKDTEGIPCLGSKVKGIIEEIIEDGESSEVKAVLNDERYQSFKLFTSVFGVGLKTSEKWFRMGFRTLSKVRSDKSLKFTRMQKAGFLYYEDLVSCVTRAEAEAVSVLVKEAVWAFLPDAFVTMTGGFRRGKKMGHDVDFLITSPGSTEDEEQLLQKVMNLWEKKGLLLYYDLVESTFEKLRLPSRKVDALDHFQKCFLIFKLPRQRVDSDQSSWQEGKTWKAIRVDLVLCPYERRAFALLGWTGSRQFERDLRRYATHERKMILDNHALYDKTKRIFLKAESEEEIFAHLGLDYIEPWERNA", "values": [{"measurement": "TdT enzymatic activity", "setting": "TdT [1]; pH ranges above 6 and below 11", "result": "highly active"}, {"measurement": "TdT enzymatic activity", "setting": "TdT [1]; pH ranges below 6 and above 11", "result": "substantially inactivated"}, {"measurement": "optimal pH", "setting": "TdT [2]", "result": 6.85}]}]}
